Results as given in IntAct's records for PubMed 20622900.

Target: mk03_human MAPK3 (UniProt P27361)
Sequence (P27361 whole entry): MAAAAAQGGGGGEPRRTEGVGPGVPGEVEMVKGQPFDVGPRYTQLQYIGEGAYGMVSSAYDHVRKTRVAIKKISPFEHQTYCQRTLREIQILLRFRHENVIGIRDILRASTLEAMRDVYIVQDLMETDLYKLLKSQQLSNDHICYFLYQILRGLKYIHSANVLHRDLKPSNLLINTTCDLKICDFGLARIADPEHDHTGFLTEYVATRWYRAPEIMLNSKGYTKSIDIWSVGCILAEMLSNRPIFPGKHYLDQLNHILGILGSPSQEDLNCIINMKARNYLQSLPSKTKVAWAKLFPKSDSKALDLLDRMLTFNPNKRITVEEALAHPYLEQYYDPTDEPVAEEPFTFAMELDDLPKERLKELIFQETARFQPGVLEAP

effect of a mutation on the interaction | Substance
disrupting interaction | Protein scribble homolog (Homo sapiens), Q14160 K1399A;R1400A
decreasing interaction | Protein scribble homolog (Homo sapiens), Q14160 R839A;R840A
